In paper PMC11157053 one finds binding data, which are given here for 3 sequences.

For this data set, the target named is T1, His6-LexA (Streptomyces mobaraensis NBRC 13819) (UniProt A0A5N5W758).
T1 sequence: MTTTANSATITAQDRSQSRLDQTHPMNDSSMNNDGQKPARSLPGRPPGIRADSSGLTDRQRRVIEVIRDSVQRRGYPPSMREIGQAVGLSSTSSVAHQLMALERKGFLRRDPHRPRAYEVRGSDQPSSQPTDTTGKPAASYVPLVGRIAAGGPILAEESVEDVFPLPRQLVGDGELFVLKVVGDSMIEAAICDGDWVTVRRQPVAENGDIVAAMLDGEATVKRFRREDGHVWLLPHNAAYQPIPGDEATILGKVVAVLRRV
As to the kind of experiment: EMSA. Conditions: EMSA: 0, 100, 200 ng His6-LexA, 25 nM probe, 20 uL; 30 mM KCl, 10 mM Tris-HCl (pH not stated), 0.4 mM DTT, 2 mM MgCl2, 0.2 mM EDTA, 2% glycerol; 30 min, 30 C …. For orientation: In EMSA bound probe runs differently from free probe, usually more slowly.

Take “CAGGCTGGTACTGATCGTCACCTGCGCGATTGGCGAGACACCTGCTGAGCAGACCGCCGCGGACCATCTCGGACACCTGCCCGACCGCTGCATTCGCCAACCGCCTCCGCACTCTCAACGACG (double strand) [Probe whiB (123 bp)]”: the binding entry is “binds”.
Turning to “CGGTGTGGAAGGTGGCGTGTACGGCATACGGATCGGAAGTGTCGTACCGCAGACCTGCGGGTACAGGCAGTGACGATTCGCTCGACACAACGAGGCGCAGGTGCAG (double strand) [Probe ssgA (106 bp)]”, the binding result is “binds”.
Regarding “GAAAAGCGAACCAATTGGAATGTGGGGCCGGAACGGGAGGTCAGGCGTTCGACGTCACACTCCGCAGGGTACCGCTCACAGCCCGAAGCGGCGCTGGAGGTCTCCCAACTG (double strand) [Probe marR1 (112 bp)]”, the binding result is recorded as “binds”.
